From a protein production outcome set (Wang et al. 2014)

Assay: label from the status in PepcDB records

Q: Which protein production does the source give for “MQEQWGYVAISFIIGIAIAFSSSLLLIVFCLFLNVFFCLYRTSRKTFIFCIVACFSSVIYTSYVQTWNKPLGESYGVTRGVIQNTPLVNGDRLSFQFEDQNKNIVQLSYRIKSALEKKKMQQLYAGISCVFEGERKEPETARNFHGFNYRDYLYKQHIHFTFEATYISECYKTSLSLTQWILLLRQQAISKVTEMFPEQSGAFMNALLFGDRQQMTFEVEEQYQQFGLVHLLAISGSHIVLLMVIVYFILLRSGATREVATICLIVCIPLYMVLAGASPSVIRASITGVLMLIAFMCSIRLSSLDALSVTAICMLIYDPYLVFNIGFQFSFVGSFALLLSAPLLLGSSNGVIRNSIYISIISQLVSTPILLYHFGYFSPYSILLNLLYVPFLSIIVLPCSIIILLCMPIVPFLAKGFADVLSIGLSMSNDFLSYCESLPFTQLIFGETPLNLVAVYCASIVSILMVWERRAPKKIVCIVASVFLFISTCHYIYPYFRGSGSVTFIDVGQGDAILIRLPYDKGIYLIDTGGTLRVNKEEWQQKKHEFSVGNDVLIPFLQKEGIKTIDKLIVTHGDADHIGAAQELLSYIPVKEVVFGRKGKDAVLEKVVKKQALEKEMKITEVGEGASWSVNEAEFFVLAPKGKEKSENNASIVIWAKFGGLKWLFTGDLEEEGEKILVEAYPDLQVDVLKVAHHGSNTSSIEPFLNVMQPRVAIISVGKQNRYGHPHKEVIERFEKMGSAIWRTDKQGAISYVFKGENGTFKSKITYDKTHNR” here?
A: failed

Q: With “MQESGCRLEHPSATKFRNHVMEGDWDKAENDLNELKPLVHSPHAIVVRGALEISQTLLGIIVRMKFLLLQQKYLEYLEDGKVLEALQVLRCELTPLKYNTERIHVLSGYLMCSHAEDLRAKAEWEGKGTASRSKLLDKLQTYLPPSVMLPPRRLQTLLRQAVELQRDRCLYHNTKLDNNLDSVSLLIDHVCSRRQFPCYTQQILTEHCNEVWFCKFSNDGTKLATGSKDTTVIIWQVDPDTHLLKLLKTLEGHAYGVSYIAWSPDDNYLVACGPDDCSELWLWNVQTGELRTKMSQSHEDSLTSVAWNPDGKRFVTGGQRGQFYQCDLDGNLLDSWEGVRVQCLWCLSDGKTVLASDTHQRIRGYNFEDLTDRNIVQEDHPIMSFTISKNGRLALLNVATQGVHLWDLQDRVLVRKYQGVTQGFYTIHSCFGGHNEDFIASGSEDHKVYIWHKRSELPIAELTGHTRTVNCVSWNPQIPSMMASASDDGTVRIWGPAPFIDHQNIEEECSSMDS” as the sequence, how does the protein production read?
A: failed

Q: With “MQESVVRVDYDSLETCKNFKPSVGTELIVLEKDIAHARFKGNESMVYEENFVHAGFVLIACNYAALCALNKRHSVVVSNNINFYAPLELNQEALIKAQVIQDGVKKAEIKIEAFVLDIQVLEGMIEIVVFDKKPFKFNFKEE” as the sequence, how does the protein production read?
A: failed

Q: With “MQETDNLLKTLNVKSLLEALLVYTPKGYKDLNLLERFETGLSGVLEVGILEKRNYAKVLKIFAYSKRFYKNLELVFFNYSAFHHSQFKTGESLFIYGKLEQSSFNQAYIINTPKIITKFGKISLIFKKVKNHKKIQENLQKLISLENLKKEGVKENIAHLLLEIFFPTPHFVKDFETNKNFPSQHLNALKYIEMLFYMKNLERKKLQFGAKIACPNNNERLKAFIASLPFKLTRDQQNAIKEIQNDLTSSIACKRLIIGDVGCGKTMVILASMVLTYPNKTLLMAPTSILAKQLYNEALKFLPPYFEVELLLGGSYKKRSNHLFETITHVVIGTQALLFDKRDLNEFALVITDEQHRFGTKQRYQLEKMASSKGNKPHSLQFSATPIPRTLALAKSAFVKTTMIREIPYPKEIETLVLHKRDFKIVMEKISEEIAKNHQVIVVYPLVNESEKIPYLSLSEGASFWQKRFKKVYTTSGQDKNKEEVIEEFRESGSILLATTLIEVGISLPRLSVMVILAPERLGLATLHQLRGRVSRNGLKGYCFLCTIQEENERLEKFADELDGFKIAELDLEYRKSGDLLQGGEQSGNSFEYIDLAKDENIIAEVKRDFLKAASVSRGTFEN” as the sequence, how does the protein production read?
A: failed

Q: With “MQEVHDYGIKFWSNNEFKIEKGLVKVCHGKNPSLLEIVQSVRDKGYRGPLLVRFPHLVQKQIKSLFDAFSSAIKEYQYSGAFKAVFPLKVNQMPSFVFPLVQGAKGLNYGLEAGSKSELIIAMSYTNPKAPITVNGFKDKEMIELGFIAKSMQHEITLTIEGLNELKTIIAVAKQNEFLACPKIGIRIRLHSTGTGVWAKSGGINSKFGLSSTEVLEAMRLLEENDLLEHFHMIHFHIGSQISDISPLKKALREAGNLYAELRKMGAKNLNSVNIGGGLAVEYTQHKHHQDKNYTLEEFSADVVFLLREIVKNKQEIEPDIFIESGRYISANHAVLVAPVLELFSHEYNEKSLKIKENNNPPLIDEMLDLLANINEKNAIEYLHDSFDHTESLFTLFDLGYIDLIDRSNTEVLAHLIVKKAVQLLYVKDHNDILRIQEQVQERYLLNCSFFQSLPDYWGLRQNFPVMPLNKLDEKPTRSASLWDITCDSDGEIAFDSTKPLFLHDIDIDEEEYFLAFFLVGAYQEVLGMKHNLFTHPTEFSVVFDEKGDYEVEDICEAQTILDVLDDLDYDTKEIERLLKQKIEDNNQLDMEEKKEIMGRLYVMLSENGYLRTIS” as the sequence, how does the protein production read?
A: failed

Q: Which protein production does the source give for “MQFFTSDTHFFHKDLLGDSDFAPRPFASVDEMNQTIIDNWNARVAETDTVYHLGDIALYFTKPAIKSDEAVFNVLSQLNGHLELIKGNHDSRALFKYLAAHNFSDHGQPKFAFHDVGALIKYDHRQYYLTHYPMMLGIVNQIINLHGHIHHYAVPVKENINVGVDTPEQRYLTTSVPFGTPFSPTEIEQMVTGKAQEFREKQLEHHHHHH” here?
A: failed

Q: Which protein production does the source give for “MQFKNTPQRYGVVSAALHWLTALVVYGMFALGLWIVTLSYYDGWYHQAPEIHKSIGILLMMALIVRIIWRLYSPPPVALTSYSRLTRASAAAGHLLLYLLLFAIIISGYLISTADGKPISVFSWFEIPATLTDAGAQADIAGTLHLWFAWSLVIISLSHGVMALKHHFIDKDDTLKRMTGMSSSDYGAQK” here?
A: failed

Q: With “MQGKKFISPGAWFSMNYPSDWNEFEDGEGSFLFYNPDVWTGNFRISAFKGNASYGKDAIRQELKENDSASLVKIGTWDCAYSKEMFQEEGTYYTSHLWITGTGNIAFECSFTVPKGGSAKEAEEVIATLEARKEGEKYPAELIPVRLSEIYQINEGYEWVVSTVKQELKKDFQGVEEDLEKIQQVIDSGKISPKKKDEWLAIGITVCAILTNEVEGMEWKTLIDGNREVPVLEYQGRTIDPMKIAWSKVKAGQPCNIAEAYQSAIDHH” as the sequence, how does the protein production read?
A: not failed

Q: Which protein production does the source give for “MQHTEERELKKRLMNTARTVSEMTEVKEALARKKQTEAVRHAVEEIRMINEADYIVVMDMNHIRYTHPVSTSIGKKSEGADEEAAFAEHIYFSEAKGEIGTAVRAFYPVKDQDLNQIGVVLVGKTLPGIADILLHLKRDI” here?
A: failed

Q: For “MQIDHGSRQPYYAQIVTGIEQDIAHGVLQSGEQLPSVREMARQHLLNPNTVSKAYKRLETQQIIETVPGKGTYVKVVDSTLFRQELREQFTQIVRLAGQRGVSIAELHGWLDQMGEK”, which protein production is on record?
A: failed

Q: Which protein production does the source give for “MQIPHGELRTLTYHSNALKSERQMYVWTPPGYSESSKPLPVLYFYHGFGDTGASAVVQGRIPQMMDNLLAEKKIEPMLVVIPDTETDVPGIIPEEYPPQERRKVFYPRNALAADRELIHDIIPAIGKRFNVRQDANGRALAGLSQGGYQALVSGMSHLDHFGWLATFSGVTTETVPNMAVAAQLERPEQINQQLKNLTVVIGETDNITGKDIAGLKTMLEQKNIRFDYTHYPNLGHEMDVWRPAYSEFVQKLFKLEHHHHHH” here?
A: not failed

Q: For “MQIQQMLENRIEELEMKIAFQEQLLDELNHALVQQQFDIDKMQVQLRYMANKLKDFQSSNIASQSEETPPPHY”, which protein production is on record?
A: not failed

Q: With “MQIRLAFPNEIDQIMLLIEEARAEIAKTGSDQWQKEDGYPNRNDIIDDILNGYAWVGIEDGMLATYAAVIDGHEEVYDAIYEGKWLHDNHRYLTFHRIAISNQFRGRGLAQTFLQGLIEGHKGPDFRCDTHEKNVTMQHILNKLGYQYCGKVPLDGVRLAYQKIKEKGETSIYREIDERNPM” as the sequence, how does the protein production read?
A: not failed

Q: With “MQKDKILKKIIVLCFFIFYNFNFFGLAVPSLSGPVVDKAGILSRSEFEKIENFLLDLDQKSKVQIAVLIIPSLEGESIEDYSMQVAEEWKLGDKEKDSGALLVVAVKDKKLRIEVGYGLEENLTDSRSGQIIRNFIAPQFRSGNYGEGIYDGIKAMAAYASEDESLLKEIAVSDEDDEGGFPQALLFFLFVYLMISKFSPGGLFWIFYLLSRSGRAGRSFNGRSSSRGSFFGGSIGRSSGRGFSGGGFSGGGGSFGGGGASGGW” as the sequence, how does the protein production read?
A: failed

Q: Which protein production does the source give for “MQKKTVGLLLASAGPFLWGSSGTVAQHLFDTTTISPLWLVAVRMLVSGGLLILYGFSRRLPVMVVFHDWRATVRLIVFSLFGMAGVQLTYFMAISTGNAAMAAILQFLSPVMIIIFITATTWQLPGKVDVISVVSAIAGTVLIVTEGHTDSLALPVIAIIWGLLAAVGATIYTLMPTKLLKVYGATPIVGWSMLIGGGLVLVGTGAWHHSPQLTWVAWGQVGFVVIFGTMLAYLFFLQSLEYILPTTASVLGAIEPLAATILSVLFLHVHFNWVGLIGAIMIVGVTILQFAATRANQFVSK” here?
A: failed

Q: Which protein production does the source give for “MQKQAELYRGKAKTVYSTENPDLLVLEFRNDTSAGDGARIEQFDRKGMVNNKFNYFIMSKLAEAGIPTQMERLLSDTECLVKKLDMVPVECVVRNRAAGSLVKRLGIEEGIELNPPLFDLFLKNDAMHDPMVNESYCETFGWVSKENLARMKELTYKANDVLKKLFDDAGLILVDFKLEFGLYKGEVVLGDEFSPDGSRLWDKETLEKMDKDRFRQSLGGLIEAYEAVARRLGVQLD” here?
A: failed

Q: For “MQKRAYLLIAVSGSLWGTIGIFVRELYGLGFSTLQIVTMRVFSAAVIMLLYLLFTKPELLKIRFRDSLYFVGTGILSIVFFNLCYFITIRETSIAIAVTLLYTAPAFVAILSRIIFRESLDAKKLFSLGLTLTGCAFVTGYLPELGNSPSITLPWLLTGLGAGFGYALYSIFGKVALKKYDTVTITAYTFFFASLALLPLVSFETSGEAFSTGSFWTYLIGLGFFPTVLAYLLYTKGLEEVESSRAAIVATVEPVVATFAGFFFFREIVSGWQLAGILFVLAGVVLIQERK”, which protein production is on record?
A: failed

Q: Which protein production does the source give for “MQKTAFIWDLDGTLLDSYEAILSGIEETFAQFSIPYDKEKVREFIFKYSVQDLLVRVAEDRNLDVEVLNQVRAQSLAEKNAQVVLMPGAREVLAWADESGIQQFIYTHKGNNAFTILKDLGVESYFTEILTSQSGFVRKPSPEAATYLLDKYQLNSDNTYYIGDRTLDVEFAQNSGIQSINFLESTYEGNHRIQALADISRIFETK” here?
A: not failed

Q: For “MQKTDGLADRIWVVLVQPKYQGNIGAVARSMKNSGLSKLIIVGNRPDDEAFARSMGGRQILENAEIVDSLEEIVHRFTIVAGTSSTASSNLKRFRRLPVDPETFWKQMESQTGKVALVFGREDDGLRNEELDLCNYFIYIPGNPDYPVYNLSHAVAIVLYVMYRSYVPSDMIQHESIKPEHEVLLMSNILDI”, which protein production is on record?
A: not failed

Q: For “MQKVTLGLLVFLAGFPVLDANDLEDKNSPFYYDWHSLQVGGLICAGVLCAMGIIIVMSAKCKCKFGQKSGHHPGETPPLITPGSAQS”, which protein production is on record?
A: failed

Q: With “MQLEVILPLVAYLVVVFGISVYAMRKRSTGTFLNEYFLGSRSMGGIVLAMTLTATYISASSFIGGPGAAYKYGLGWVLLAMIQLPAVWLSLGILGKKFAILARRYNAVTLNDMLFARYQSRLLVWLASLSLLVAFVGAMTVQFIGGARLLETAAGIPYETGLLIFGISIALYTAFGGFRASVLNDTMQGLVMLIGTVVLLIGVVHAAGGLSNAVQTLQTIDPQLVTPQGADDILSPAFMTSFWVLVCFGVIGLPHTAVRCISYKDSKAVHRGIIIGTIVVAILMFGMHLAGALGRAVIPDLTVPDLVIPTLMVKVLPPFAAGIFLAAPMAAIMSTINAQLLQSSATIIKDLYLNIRPDQMQNETRLKRMSAVITLVLGALLLLAAWKPPEMIIWLNLLAFGGLEAVFLWPLVLGLYWERANAKGALSAMIVGGVLYAVLATLNIQYLGFHPIVPSLLLSLLAFLVGNRFGTSVPQATVLTTDK” as the sequence, how does the protein production read?
A: failed
